According to patent US5863776A, “Method of preparing apoenzyme” (Research Development Foundation, priority 1996, dated 1999):

Assays:
MAO B [1] = molecular target: T1, MAO B (Homo sapiens, UniProt P27338, E34D); assay: [^14 C] FAD incorporation into wild-type or mutant MAO B in Rib^- COS-7 cells (immunoprecipitation, fluorography); assay type: binding; conditions: densitometer
T1 construct: expressed in transfected cells; host or cells: Rib+ COS-7, transient
T1 sequence (P27338 2-520 E34D): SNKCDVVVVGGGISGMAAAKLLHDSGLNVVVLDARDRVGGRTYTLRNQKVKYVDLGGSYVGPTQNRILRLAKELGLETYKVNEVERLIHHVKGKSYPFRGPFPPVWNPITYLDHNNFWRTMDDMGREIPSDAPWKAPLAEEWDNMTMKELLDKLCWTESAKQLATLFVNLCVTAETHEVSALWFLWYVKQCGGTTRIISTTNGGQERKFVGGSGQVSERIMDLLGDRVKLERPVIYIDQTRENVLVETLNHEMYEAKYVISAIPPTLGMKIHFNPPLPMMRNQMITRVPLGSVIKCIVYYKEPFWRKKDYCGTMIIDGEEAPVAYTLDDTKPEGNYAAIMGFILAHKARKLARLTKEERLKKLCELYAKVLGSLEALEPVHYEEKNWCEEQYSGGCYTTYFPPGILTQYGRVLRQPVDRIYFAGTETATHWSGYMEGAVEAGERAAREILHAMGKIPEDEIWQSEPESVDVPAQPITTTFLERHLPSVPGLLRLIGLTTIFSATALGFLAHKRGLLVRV
Protocol: (§1) Mutagenesis was carried out by the method of Deng and Nickoloff (22) using a Transformer Site-directed Mutagenesis kit (Clontech). Glu in position 34 was replaced with Asp (E34D), Gln (E34Q), or Ala (E34A), and Val in position 10 was replaced with Ile (V10I) as described by Kwan et al. (18).
(§2) Wild-type or mutant MAO B cDNAs were transiently transfected into COS-7 cells by electroporation (23) as previously described (18). Briefly, Rib^+ - or Rib^- COS-7 cells were harvested during late log phase growth and resuspended to a concentration of 3.1×10^6 cells/ml in either riboflavin-containing or riboflavin-free medium, respectively. Wild-type or mutant MAO B cDNAs ([…]) were added to 0.8 ml of cell suspension. […] Electroporation was carried out in a Bio-Rad Gene Pulser with a setting of 250 V and 500 μF. Cells were resuspended in 15 ml of riboflavin-containing or riboflavin-free medium and incubated at 37° C. with 5% CO2. Transfected COS-7 cells were harvested at 48 hours and homogenized in a lysis solution containing 20 mM Tris-HCl, 1 mM EDTA, 0.5 mM PMSF, pH 8.0. The homogenate was diluted with an equal volume of the same buffer supplemented with 300 mM NaCl to obtain a 150 mM final NaCl concentration. Triton X-100 (Pierce) was added to the lysate to give a final concentration of 0.25%, and the samples were allowed to stir for 50 min. at 4° C. to extract MAO B from the outer mitochondrial membrane. After Triton extraction, the lysate was centrifuged at 1300×g for 5 min. at 4° C. to remove insoluble cell debris.
(§3) Transfected Rib^+ - or Rib^- COS-7 cells were homogenized, and extracted with 0.25% Triton X-100 for 50 minutes at 4° C. The cell lysates were centrifuged at 1300×g for 5 minutes, and an aliqout of each supernatant was analyzed for MAO B concentration by ELISA. All supernatants were then adjusted to equal MAO B concentration and incubated with polyclonal goat anti-MAO B antibody (10 μg) overnight at 4° C. Protein-G Sepharose beads (Pierce) were added (50 μl) and incubation was continued for 3 hours. The protein-G Sepharose/goat antibody/MAO B immmunocomplex was collected by centrifugation at 10,000×g for 20 seconds and washed 6 times with 150 μl of 20 mM Tris buffer, pH 8.0. The immunocomplex was then dissolved in SDS-PAGE sample buffer and analyzed by Western blot or fluorography.
(§4) The immunoprecipitated proteins (obtained as described above) were subjected to electrophoresis in a 10% SDS-polyacrylamide gel and examined by Western blotting as previously described (18). The immunoprecipitated proteins (obtained as described above) were subjected to electrophoresis in a 10% SDS-polyacrylamide gel. The SDS-PAGE gel was fixed by soaking in 7% acetic acid, 10% methanol, 83% H2 O for 1 hour, and then processed for fluorography as described by Bonner and Laskey (27). The dried gel was exposed to Kodak X-OMAT AR film at -80° C. for 2 weeks.
(§5) The expressed wild-type and variant MAO Bs were adjusted to equal concentrations using ELISA before immunoprecipitation, and then analyzed by fluorography. The amount of incorporation of [^14 C] […] FAD was incorporated into the enzyme.

MAO B [2] = assay: as above; assay type: binding, human; conditions: about 59 kDa; equal MAO B concentrations
Protocol: as §1, §2, §3, §4, §5

MAO B [3] = molecular target: T1, MAO B; conditions: cited from earlier work

[^14 C] FAD incorporation, percent of wild-type (MAO B [1]): about 10%
B1: E34D: MAO B with Glu in position 34 replaced with Asp (protein, UniProt P27338 2-520, looked up, variant E34D)
Amine oxidase …: T1 sequence (P27338 2-520 E34D)
[^14 C] FAD incorporation (band on fluorogram) (MAO B [2]): faint band
reduction in activity (MAO B [3]; Rib^+ COS-7 cells): 93%
activity, % of wild-type activity (MAO B [3]): 7%
